Measurements: IntAct's records for PubMed 35512704

B1: Mothers against decapentaplegic homolog 4 (Homo sapiens), Q13485 (parent)
chain: MDNMSITNTPTSNDACLSIVHSLMCHRQGGESETFAKRAIESLVKKLKEKKDELDSLITAITTNGAHPSKCVTIQRTLDGRLQVAGRKGFPHVIYARLWRWPDLHKNELKHVKYCQYAFDLKCDSVCVNPYHYERVVSPGIDLSGLTLQSNAPSSMMVKDEYVHDFEGQPSLSTEGHSIQTIQHPPSNRASTETYSTPALLAPSESNATSTANFPNIPVASTSQPASILGGSHSEGLLQIASGPQPGQQQNGFTGQPATYHHNSTTTWTGSRTAPYTPNLPHHQNGHLQHHPPMPPHPGHYWPVHNELAFQPPISNHPAPEYWCSIAYFEMDVQVGETFKVPSSCPIVTVDGYVDPSGGDRFCLGQLSNVHRTEAIERARLHIGKGVQLECKGEGDVWVRCLSDHAVFVQSYYLDREAGRAPGDAVHKIYPSAYIKVFDLRQCHRQMQQQAATAQAAAAAQAAAVAGNIPGPGSVGGIAPAISLSAAAGIGVDDLRRLCILRMSFVKGWGPDYPRQSIKETPCWIEIHLHRALQLLDEVLHTMPIADPQPLD
partner: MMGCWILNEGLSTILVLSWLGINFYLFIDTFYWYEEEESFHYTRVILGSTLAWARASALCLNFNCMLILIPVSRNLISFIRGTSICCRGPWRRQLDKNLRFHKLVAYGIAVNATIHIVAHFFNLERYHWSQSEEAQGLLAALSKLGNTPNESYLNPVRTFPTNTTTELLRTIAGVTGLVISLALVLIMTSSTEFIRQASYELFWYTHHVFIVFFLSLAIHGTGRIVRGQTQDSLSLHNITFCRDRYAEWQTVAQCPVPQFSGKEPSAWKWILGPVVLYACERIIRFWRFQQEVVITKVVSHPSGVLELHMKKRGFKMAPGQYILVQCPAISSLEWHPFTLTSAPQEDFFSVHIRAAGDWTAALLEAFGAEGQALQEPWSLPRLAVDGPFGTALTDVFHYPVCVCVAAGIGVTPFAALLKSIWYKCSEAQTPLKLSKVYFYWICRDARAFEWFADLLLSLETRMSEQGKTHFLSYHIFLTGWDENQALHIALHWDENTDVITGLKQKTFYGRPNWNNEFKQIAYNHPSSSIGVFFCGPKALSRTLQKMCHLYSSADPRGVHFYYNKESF
B2: Mothers against decapentaplegic homolog 4 (Homo sapiens), Q13485 (parent)
chain: B1 chain
partner: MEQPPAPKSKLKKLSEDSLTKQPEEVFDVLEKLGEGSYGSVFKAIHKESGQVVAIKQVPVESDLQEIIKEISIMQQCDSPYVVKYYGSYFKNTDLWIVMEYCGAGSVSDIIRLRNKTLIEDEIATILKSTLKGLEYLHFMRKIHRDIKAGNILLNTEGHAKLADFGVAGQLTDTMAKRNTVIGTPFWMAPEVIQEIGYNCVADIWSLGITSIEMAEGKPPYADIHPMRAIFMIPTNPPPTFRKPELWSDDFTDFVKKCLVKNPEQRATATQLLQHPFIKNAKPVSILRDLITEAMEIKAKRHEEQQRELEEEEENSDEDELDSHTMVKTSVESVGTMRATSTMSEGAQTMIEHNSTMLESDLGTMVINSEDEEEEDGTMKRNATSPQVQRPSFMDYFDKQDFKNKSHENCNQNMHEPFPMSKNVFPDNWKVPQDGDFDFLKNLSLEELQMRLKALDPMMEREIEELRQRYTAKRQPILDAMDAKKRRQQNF
B3: Mothers against decapentaplegic homolog 4 (Homo sapiens), Q13485 (parent)
chain: B1 chain
partner: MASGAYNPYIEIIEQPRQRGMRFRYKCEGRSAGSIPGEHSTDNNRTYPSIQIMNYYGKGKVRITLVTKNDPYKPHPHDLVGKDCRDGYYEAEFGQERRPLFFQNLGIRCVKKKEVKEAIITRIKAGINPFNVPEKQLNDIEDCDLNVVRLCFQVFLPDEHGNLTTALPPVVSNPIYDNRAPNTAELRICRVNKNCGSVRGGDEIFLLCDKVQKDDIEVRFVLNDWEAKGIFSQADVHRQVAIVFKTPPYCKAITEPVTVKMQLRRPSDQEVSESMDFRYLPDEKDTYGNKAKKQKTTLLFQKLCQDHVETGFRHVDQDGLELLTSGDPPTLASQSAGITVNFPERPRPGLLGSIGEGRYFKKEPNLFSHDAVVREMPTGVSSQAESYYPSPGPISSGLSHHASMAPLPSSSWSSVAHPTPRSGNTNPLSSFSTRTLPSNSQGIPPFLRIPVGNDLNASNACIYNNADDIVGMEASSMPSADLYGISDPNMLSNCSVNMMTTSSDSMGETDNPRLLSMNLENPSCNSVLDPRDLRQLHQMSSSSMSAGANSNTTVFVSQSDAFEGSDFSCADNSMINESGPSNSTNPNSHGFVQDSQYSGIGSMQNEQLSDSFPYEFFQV
B4: Mothers against decapentaplegic homolog 4 (Homo sapiens), Q13485 (parent)
chain: B1 chain
partner: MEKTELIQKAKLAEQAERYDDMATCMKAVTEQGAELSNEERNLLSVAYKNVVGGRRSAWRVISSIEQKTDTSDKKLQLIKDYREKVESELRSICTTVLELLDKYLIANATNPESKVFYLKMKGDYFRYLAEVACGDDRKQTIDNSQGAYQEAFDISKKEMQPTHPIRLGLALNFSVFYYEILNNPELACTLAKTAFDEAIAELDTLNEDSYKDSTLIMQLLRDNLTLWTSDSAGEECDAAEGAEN
B5: Mothers against decapentaplegic homolog 4 (Homo sapiens), Q13485 (parent)
chain: B1 chain
partner: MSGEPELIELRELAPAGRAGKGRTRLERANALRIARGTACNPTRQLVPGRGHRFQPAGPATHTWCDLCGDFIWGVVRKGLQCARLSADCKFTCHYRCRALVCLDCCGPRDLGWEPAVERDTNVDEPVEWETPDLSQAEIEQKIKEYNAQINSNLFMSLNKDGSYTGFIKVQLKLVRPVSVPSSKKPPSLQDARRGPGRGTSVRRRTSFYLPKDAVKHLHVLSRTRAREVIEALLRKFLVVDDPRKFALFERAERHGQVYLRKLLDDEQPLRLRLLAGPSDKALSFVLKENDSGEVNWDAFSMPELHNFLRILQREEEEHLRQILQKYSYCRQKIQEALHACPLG

Variants of: B1
Details: with nox3_human NOX3, Q9HBY0

| Variant | effect of a mutation on the interaction |
| --- | --- |
| G386D | with no effect |

Variants of: B1
Details: with nox3_human NOX3, Q9HBY0
Remark: another data set of the same source

| Variant | effect of a mutation on the interaction |
| --- | --- |
| R361H | with no effect |

Variants of: B2
Details: with stk3_human STK3, Q13188

| Variant | effect of a mutation on the interaction |
| --- | --- |
| D351H | with no effect |

Variants of: B2
Details: with stk3_human STK3, Q13188
Remark: another data set of the same source

| Variant | effect of a mutation on the interaction |
| --- | --- |
| R361H | with no effect |

Variants of: B2
Details: with stk3_human STK3, Q13188
Remark: another data set of the same source

| Variant | effect of a mutation on the interaction |
| --- | --- |
| R361C | with no effect |

Variants of: B2
Details: with stk3_human STK3, Q13188
Remark: another data set of the same source

| Variant | effect of a mutation on the interaction |
| --- | --- |
| G386D | with no effect |

Variants of: B3
Details: with rel_human REL

| Variant | effect of a mutation on the interaction |
| --- | --- |
| G386D | with no effect |

Variants of: B4
Details: with 1433t_human YWHAQ

| Variant | effect of a mutation on the interaction |
| --- | --- |
| D351H | with no effect |

Variants of: B4
Details: with 1433t_human YWHAQ
Remark: another data set of the same source

| Variant | effect of a mutation on the interaction |
| --- | --- |
| G386D | with no effect |

Variants of: B4
Details: with 1433t_human YWHAQ
Remark: another data set of the same source

| Variant | effect of a mutation on the interaction |
| --- | --- |
| R361C | with no effect |

Variants of: B4
Details: with 1433t_human YWHAQ
Remark: another data set of the same source

| Variant | effect of a mutation on the interaction |
| --- | --- |
| R361H | with no effect |

Variants of: B5
Details: with rasf1_human RASSF1, Q9NS23

| Variant | effect of a mutation on the interaction |
| --- | --- |
| G386D | with no effect |
